The values that follow come from patent US12331110B2, “Monoclonal antibodies against endotrophin and the use thereof” (THE BOARD OF REGENTS OF THE UNIVERSITY OF TEXAS SYSTEM, priority 2018, dated 2025).

In test [1] the target is T1, recombinant endotrophin protein (Homo sapiens, UniProt P12111).
T1 construct: the latter consisting of 77 amino acids at the carboxy-terminal of the COL6α3 chain; CD33 signal peptide (N, cleaved yes); His-tag with EK-cleavage site (N, cleaved yes); purchased Sino Biological, Beijing, China; host or cells: HEK293
The test can be described thus: Affinity measurement with BLI (Octet RED96). The note with it: Octet (96-Red), 1:1 binding model. On the procedure: FIGS. 12A-B. Kinetic sensorgrams for ETP-mAb4 (FIG. 12A) and each of the humanized antibodies (FIG. 12B). […]
For antibody affinity measurement, antibody (30 μg/mL) was loaded onto the protein A biosensors for 4 min. Following a short baseline in kinetics buffer, the loaded biosensors were exposed to a series of recombinant endotrophin protein at 0.1-200 nM and background subtraction was used to correct for sensor drifting. All experiments were performed with shaking at 1,000 rpm. Background wavelength shifts were measured from reference biosensors that were loaded only with antibody. Kinetic sensorgrams for each antibody are shown in FIGS. 12A&B. ForteBio's data analysis software was used to fit the data to a 1:1 binding model to extract an association rate and dissociation rate. The Kd was calculated using the ratio of koff/kon and the estimated values of […] for endotrophin ETP-mAb4 and 4 humanized ETP-hMab4 antibodies are listed in Table 4.
On the technique in general: In BLI a coated tip is dipped into the sample, and binding shifts an interference pattern.

Test [2] deals with MCF7 breast cancer cells. The experiment in a line: MCF7 cisplatin/endotrophin cell survival (MTS) neutralization assay. Type of test: cell-based, human. As to the method: FIGS. 3A-D. Generation and screening of anti-human endotrophin. (FIG. 3A) MCF7 breast cancer cells (20,000 cells) were plated into a 96-well plate. Cells were then treated with 10 μm cisplatin, 10 μm cisplatin/100 ng/mL endotrophin, and 10 μm cisplatin/100 ng/mL endotrophin/10 μg/mL ETPmAb4 for 24 hr. Cell survival was measured using a CellTiter One Solution Cell Proliferation Assay. Statistical significance of the curve fit parameters was tested using the extra sum of squares F test with P<0.05 considered significant. Goodness of curve fit is described using r2. Mean±SEM, n=3. (FIG. 3B) ETP transfected MCF7 cells (100,000 cells) were plated into a 24-well plate with 500 μL media. Then 4 μL of supernatant was loaded for Western blotting. It is estimated that approximately 1 ng of ETP was loaded, compared with the standard ETP (2 ng band). The concentration yields approximately 0.052 pg secreted ETP/hr/cell. […] ETP expression was determined by qRT-PCR and normalized to GAPDH. […] Migrated cells were counted after a 2 hr incubation. In all cases, data was represented as mean±SD, and statistical significance (*** p<0.0001) was calculated using an unpaired Student's t-test.
MTS assay screening endotrophin monoclonal antibodies. […] Cell survival was measured using a CellTiter One Solution Cell Proliferation Assay. […] The plate was then read at 490 nm using a Sunrise microplate reader (TECAN). […]

T1 sequence (P12111 3101-3177): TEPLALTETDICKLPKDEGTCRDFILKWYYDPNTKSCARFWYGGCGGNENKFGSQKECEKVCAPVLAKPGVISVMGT

B1: ETP-mAb4: rabbit monoclonal anti-human endotrophin antibody selected for further study; VH SEQ ID NO: 125, VL SEQ ID NO: 126 (antibody, V domains shown)
VH: SSRVKESGGDLVKPGASLTLTCKASGFSFSSGYYICWVRQAPGKGLEWIACIYGGNNNPYYANWVNGRFTTSKTSSTTVTLQMTNLTGADTATYFCARKDINIGGAYELWGPGTLVTISS
VL: ELVMTQTPASVSEPVGGTVTINCQASQSISSSYLSWYQQKPGQPPKLLIYKASTLASGVPSRFKGSGSGTQFSLTISDLECADAATYYCQYSDWANSYGNAFGGGTEVVVK
Regarding B1, in test [1], the kdis is reported as 2.49 E−04 1/s and the kon is reported as 1.42 E+05 1/Ms. Besides, in test [2] (10 μm cisplatin, 100 ng/mL endotrophin, 10 μg/mL antibody, 24 hr), the “neutralization of endotrophin-mediated MCF-7 cell survival” value is “completely neutralize”. In test [2] (cisplatin plus endotrophin), the “restoration of cisplatinum susceptibility of endotrophin-exposed MCF-7 cells” value was “forced the cells to become susceptible to cisplatinum, in a dose-dependent manner”.
